Laboratory results taken from US20210054094A1 (Hoffmann-La Roche, published 2021).
Where two headings read alike, the source gives them in different places.

Assays:
Experiment in all cases: cell-based or functional assay
human GPRC5D [1] = target: T1, human GPRC5D (human, UniProt Q9NZD1 1-345)
human GPRC5D [2] = target: T1, human GPRC5D; remark: listed apart in the source
human GPRC5D [3] = target: T1, human GPRC5D; remark: listed apart in the source

T1 sequence (Q9NZD1 whole entry): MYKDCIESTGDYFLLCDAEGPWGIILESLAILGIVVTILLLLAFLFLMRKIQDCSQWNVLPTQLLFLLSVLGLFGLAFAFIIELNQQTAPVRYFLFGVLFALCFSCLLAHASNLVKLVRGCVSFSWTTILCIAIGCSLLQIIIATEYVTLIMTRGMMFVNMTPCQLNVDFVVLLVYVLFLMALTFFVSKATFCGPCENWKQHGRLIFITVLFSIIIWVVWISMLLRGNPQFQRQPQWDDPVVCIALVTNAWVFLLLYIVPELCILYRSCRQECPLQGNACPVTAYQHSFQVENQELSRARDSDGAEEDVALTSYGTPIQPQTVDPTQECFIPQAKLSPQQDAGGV

B1: P1AE5733 (antibody, V domains shown)
VH: EVQLVESGGGLVQPGRSLKLSCAASGFSFSNYGMAWVRQAATKGLEWVASISTGGGNTYYRDSVKGRFIVSRDNAKNTQYLQMDSLRSEDTATYYCTRHDRGGLYWGQGVMVTVSS
VL: DIVMTQAPLSVSVTPGESASISCRSSKSLLHSNGITYVYWYFQKPGKSPQVLIYRMSNLASGVPDRFSGSGSETDFTLKISRVEAEDVGIYHCGQLLENPYTFGAGTELELK
CAR-J2 EC50 (PGLALA-CAR-J activation, L363 target cells) (human GPRC5D [1]): 0.00265 µg/mL

B2: P1AE5707 (antibody, V domains shown)
VH: EVQLLESGGGLVQPGGSLRLSCAASGFTFSKYAMAWVRQAPGKGLEWVASISTGGVNTYYRDSVKARFTISRDNSKNTLYLQMNSLRAEDTAVYYCATHTGDYFDYWGQGTMVTVSS
VL: DIVMTQSPDSLAVSLGERATINCRASQSVSISGINLMNWYQQKPGQQPKLLIYHASILASGVPDRFSGSGSGTDFTLTISSLQAEDVAVYYCQQTRESPLTFGQGTRLEIK
CAR-J2 EC50 (PGLALA-CAR-J activation, L363 target cells) (human GPRC5D [2]): 0.0424 µg/mL

B3: P1AE5713 (antibody, V domains shown)
VH: EVQLLESGGGLVQPGGSLRLSCAASGFTFSKYAMAWVRQAPGKGLEWVASISTGGVNTYYRDSVKARFTISRDNSKNTLYLQMNSLRAEDTAVYYCATHTGDYFDYWGQGTMVTVSS
VL: DIQMTQSPSSLSASVGDRVTITCRASQSVSISGINLMNWYQQKPGQQPKLLIYHASILASGVPSRFSGSGSGTDFTLTISSLQPEDFATYYCQQTRESPLTFGQGTRLEIK
CAR-J2 EC50 (PGLALA-CAR-J activation, L363 target cells) (human GPRC5D [2]): 0.0769 µg/mL

B4: P1AE5708 (antibody, V domains shown)
VH: EVQLLESGGGLVQPGGSLRLSCAASGFTFSKYAMAWVRQAPGKGLEWVASISTGGVNTYYRDSVKARFTISRDNSKNTLYLQMNSLRAEDTAVYYCATHTGDYFDYWGQGTMVTVSS
VL: DIVMTQSPDSLAVSLGERATINCKSSQSVSISGINLMNWYQQKPGQQPKLLIYHASILASGVPDRFSGSGSGTDFTLTISSLQAEDVAVYYCQQTRESPLTFGQGTRLEIK
CAR-J2 EC50 (PGLALA-CAR-J activation, L363 target cells) (human GPRC5D [2]): 0.456 µg/mL

B5: 10B10-TCB (bispecific antibody)
light 1: DIQLTQSPHSLSASLGETVSIECLASEGISNYLAWFHQKPGKSPQLLIYYASSLQDGVPSRFSGSGSGTQYSLKISNMQPEDEGVYYCQQGYKYPLTFGSGTKLEIKRTVAAPSVFIFPPSDRKLKSGTASVVCLLNNFYPREAKVQWKVDNALQSGNSQESVTEQDSKDSTYSLSSTLTLSKADYEKHKVYACEVTHQGLSSPVTKSFNRGEC
light 2: EVQLLESGGGLVQPGGSLRLSCAASGFTFSTYAMNWVRQAPGKGLEWVSRIRSKYNNYATYYADSVKGRFTISRDDSKNTLYLQMNSLRAEDTAVYYCVRHGNFGNSYVSWFAYWGQGTLVTVSSASVAAPSVFIFPPSDEQLKSGTASVVCLLNNFYPREAKVQWKVDNALQSGNSQESVTEQDSKDSTYSLSSTLTLSKADYEKHKVYACEVTHQGLSSPVTKSFNRGEC
heavy 1: EVQLVESGGGLVQPGRSMKLSCAASGFTFTNFYMAWVRQAPTKALEWVASINTGGGYTYYRDSVKGRFTVSRDNTRSTLYLQMDSLRSEETATYYCARHLTYYGRYYYFDYWGQGVMVTVSSASTKGPSVFPLAPSSKSTSGGTAALGCLVEDYFPEPVTVSWNSGALTSGVHTFPAVLQSSGLYSLSSVVTVPSSSLGTQTYICNVNHKPSNTKVDEKVEPKSCDKTHTCPPCPAPEAAGGPSVFLFPPKPKDTLMISRTPEVTCVVVDVSHEDPEVKFNWYVDGVEVHNAKTKPREEQYNSTYRVVSVLTVLHQDWLNGKEYKCKVSNKALGAPIEKTISKAKGQPREPQVCTLPPSRDELTKNQVSLSCAVKGFYPSDIAVEWESNGQPENNYKTTPPVLDSDGSFFLVSKLTVDKSRWQQGNVFSCSVMHEALHNHYTQKSLSLSPGK
heavy 2: not shown
EC50 of in vitro killing, AMO-1 cells (human GPRC5D [3]): 0.084 nM | EC50 of in vitro killing, EJM cells (human GPRC5D [3]): 0.079 nM | EC50 of in vitro killing, L363 cells (human GPRC5D [3]): 0.034 nM | EC50 of in vitro killing, MOLP-2 cells (human GPRC5D [3]): 0.16 nM | EC50 of in vitro killing, NCI-H929 cells (human GPRC5D [3]): 0.056 nM | EC50 of in vitro killing, OPM-2 cells (human GPRC5D [3]): 0.028 nM | EC50 of in vitro killing, RPMI cells (human GPRC5D [3]): 0.965 nM

B6: B72-TCB (bispecific antibody, human IgG1, kappa, L234A L235A)
heavy 1: not shown
light 1: EVQLVESGGGLVQPGGSLRLSCAASGFTFNTYAMNWVRQAPGKGLEWVARIRSKYNNYATYYAASVKGRFTISRDDSKNSLYLQMNSLKTEDTAVYYCARHGNFGNSYVSWFAYWGQGTLVTVSSASVAAPSVFIFPPSDEQLKSGTASVVCLLNNFYPREAKVQWKVDNALQSGNSQESVTEQDSKDSTYSLSSTLTLSKADYEKHKVYACEVTHQGLSSPVTKSFNRGEC
heavy 2: QVQLVQSGAEVKKPGASVKVSCKASGYSFTGYTMNWVRQAPGQGLEWMGLINPYNSDTNYAQKLQGRVTMTTDTSTSTAYMELRSLRSDDTAVYYCARVALRVALDYWGQGTLVTVSSASTKGPSVFPLAPSSKSTSGGTAALGCLVEDYFPEPVTVSWNSGALTSGVHTFPAVLQSSGLYSLSSVVTVPSSSLGTQTYICNVNHKPSNTKVDEKVEPKSCDKTHTCPPCPAPEAAGGPSVFLFPPKPKDTLMISRTPEVTCVVVDVSHEDPEVKFNWYVDGVEVHNAKTKPREEQYNSTYRVVSVLTVLHQDWLNGKEYKCKVSNKALGAPIEKTISKAKGQPREPQVCTLPPSRDELTKNQVSLSCAVKGFYPSDIAVEWESNGQPENNYKTTPPVLDSDGSFFLVSKLTVDKSRWQQGNVFSCSVMHEALHNHYTQKSLSLSPGK
light 2: DIQMTQSPSSLSASVGDRVTITCKASQNVATHVGWYQQKPGKAPKRLIYSASYRYSGVPSRFSGSGSGTEFTLTISNLQPEDFATYYCQQYNRYPYTFGQGTKLEIKRTVAAPSVFIFPPSDRKLKSGTASVVCLLNNFYPREAKVQWKVDNALQSGNSQESVTEQDSKDSTYSLSSTLTLSKADYEKHKVYACEVTHQGLSSPVTKSFNRGEC
EC50 of in vitro killing, AMO-1 cells (human GPRC5D [3]): 0.109 nM | EC50 of in vitro killing, EJM cells (human GPRC5D [3]): 0.06 nM | EC50 of in vitro killing, L363 cells (human GPRC5D [3]): 0.058 nM | EC50 of in vitro killing, MOLP-2 cells (human GPRC5D [3]): 0.124 nM | EC50 of in vitro killing, NCI-H929 cells (human GPRC5D [3]): 0.058 nM | EC50 of in vitro killing, OPM-2 cells (human GPRC5D [3]): 0.171 nM | EC50 of in vitro killing, RPMI cells (human GPRC5D [3]): 0.193 nM

B7: P1AE5706 (antibody, V domains shown)
VH: ELQLEQSGGGLVQPGGSLTLSCAASGFTFSKYAMAWVRQAPTKGLEWVASISTGGVNTYYRDSVKARFTISRDNAKNTQYLQMDSLRSEDTATYYCATHTGDYFDYWGQGVMVTVSS
VL: DIVLTQSPALAVSPGQRATISCRASQSVSISGINLMNWYQQKPGQQPKLLIYHASILASGIPTRFSGSGSGTDFTLTIDPVQADDIATYYCQQTRESPLTFGSGTNLEIK
CAR-J2 EC50 (PGLALA-CAR-J activation, L363 target cells) (human GPRC5D [2]): 0.0039 µg/mL

B8: P1AE5759 (antibody, V domains shown)
VH: EVQLVESGGGLVQPGGSLRLSCAASGFSFSNYGMAWVRQAPGKGLEWVASISTGGGNTYYRDSVKGRFTISRDNAKNTLYLQMNSLRAEDTAVYYCTRHDRGGLYWGQGTMVTVSS
VL: EIVLTQSPGTLSLSPGERATLSCRASKSLLHSNGITYVYWYQQKPGQAPRLLIYRMSNLASGIPDRFSGSGSGTDFTLTISRLEPEDFAVYHCGQLLENPYTFGQGTKLEIK
CAR-J2 EC50 (PGLALA-CAR-J activation, L363 target cells) (human GPRC5D [1]): 0.0157 µg/mL

B9: P1AE5764 (antibody, V domains shown)
VH: EVQLVESGGGLVQPGGSLRLSCAASGFSFSNYGMAWVRQAPGKGLEWVASISTGGGNTYYADSVKGRFTISRDNAKNTLYLQMNSLRAEDTAVYYCTRHDRGGLYWGQGTMVTVSS
VL: EIVLTQSPGTLSLSPGERATLSCRASKSLLHSNGITYVYWYQQKPGQAPRLLIYRMSNLASGIPDRFSGSGSGTDFTLTISRLEPEDFAVYHCGQLLENPYTFGQGTKLEIK
CAR-J2 EC50 (PGLALA-CAR-J activation, L363 target cells) (human GPRC5D [1]): 0.0782 µg/mL
